Paper PMC11736430, “Embedding a ribonuclease in the spore crust couples gene expression to spore development in Bacillus subtilis” (Nucleic Acids Research, 2025)

Target: the molecule itself
Test: SEC; KapD alone on the gel-filtration column; fractions 8-16 blotted with anti-KapD; size against a molecular weight marker

B1: KapD-6xHis (enzyme, B. subtilis, UniProt O05231 1-205, looked up)
chain: MTTNSLLIIDFEFTMPDGKYSPQNFFPEIIEAGIVKSIDDEVVETFSSYVRPKKFPKLTKRCKSFLKITQKQVDEGMRFEDFIRKLNELDPEKNSTIITWGNMDMKVLKQNCMFNHIPFPFKGEMRDLSLEYKNFFGDRTLTGLWKAAEEYGDSGTGTHHKALDDALTAYKLFKLVEQDKQYLEKPKPPTIGERIDLTELLKRAT
notes: KapD, 3'-exoribonuclease of the DEDDh family, Bacillus subtilis; kapD gene amplified with oligos CC073/074 and cloned in pET28a (EcoRI/SalI); also called KapD-His; His-tagged KapD; source: E. coli BL21 CodonPlus RIL (strain CCE095); in lysate (cells lysed together with the CotY strain), and purified (His-Trap, gel filtration) for KapD alone; not shown: His6, C-terminal, kept
B1 was tested, and the “stoichiometry N” value was 2.
